Results as given in article PMC12572374, “Regulation of ADP-ribosyltransferase activity by ART domain dimerization in PARP15” (Nature Communications, 2025).

Tests used:
PARP15 [1] = target: T1, PARP15 (Homo sapiens, UniProt Q460N3, R576D); assay: nanoDSF thermal shift at […] ligand; assay type: binding
T1 construct: ART domain, Asn481-Ala678
T1 sequence (Q460N3 481-678 R576D): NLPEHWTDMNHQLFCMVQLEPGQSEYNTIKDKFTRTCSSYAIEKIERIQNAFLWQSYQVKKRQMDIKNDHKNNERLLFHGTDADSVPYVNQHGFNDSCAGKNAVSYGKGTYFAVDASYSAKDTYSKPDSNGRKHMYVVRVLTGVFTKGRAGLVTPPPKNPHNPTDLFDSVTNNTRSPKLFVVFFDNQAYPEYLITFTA

PARP15 [2] = target: T2, PARP15 (Homo sapiens, UniProt Q460N3, R576E); assay: X-ray crystal structure; also nanoDSF thermal shift; assay type: binding
T2 construct: ART domain, Asn481-Ala678
T2 sequence (Q460N3 481-678 R576E): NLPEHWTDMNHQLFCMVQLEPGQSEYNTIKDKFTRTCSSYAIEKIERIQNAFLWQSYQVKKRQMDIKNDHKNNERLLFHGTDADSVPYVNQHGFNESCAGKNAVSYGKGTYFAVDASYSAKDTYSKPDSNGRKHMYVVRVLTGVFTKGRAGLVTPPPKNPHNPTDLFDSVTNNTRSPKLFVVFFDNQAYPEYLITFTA

PARP10 = target: T3, PARP10 (Homo sapiens, UniProt Q53GL7); assay: auto-MARylation assay with purified enzyme (MacroGreen overlay); assay type: biochemical
T3 construct: ART domain, Asn819-Val1007
T3 sequence (Q53GL7 819-1007): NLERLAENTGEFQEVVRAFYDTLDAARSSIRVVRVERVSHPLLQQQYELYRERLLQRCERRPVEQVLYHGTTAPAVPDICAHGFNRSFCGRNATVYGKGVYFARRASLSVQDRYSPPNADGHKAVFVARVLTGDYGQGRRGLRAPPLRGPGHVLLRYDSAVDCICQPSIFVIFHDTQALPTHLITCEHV

PARP15 [3] = target: T2, PARP15; assay: ITC; also HDX-MS; assay type: binding
PARP15 [4] = target: T4, PARP15 (Homo sapiens, UniProt Q460N3); assay: ITC; also HDX-MS; assay type: binding
T4 construct: ART domain, Asn481-Ala678
T4 sequence (Q460N3 481-678): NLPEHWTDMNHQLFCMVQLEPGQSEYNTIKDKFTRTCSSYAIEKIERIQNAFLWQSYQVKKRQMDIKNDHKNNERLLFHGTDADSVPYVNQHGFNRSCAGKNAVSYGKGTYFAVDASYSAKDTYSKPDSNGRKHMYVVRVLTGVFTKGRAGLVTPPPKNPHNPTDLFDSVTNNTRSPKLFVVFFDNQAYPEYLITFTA

[5] = target: the molecule itself; assay: HDX-MS; 2 mg/ml m2-ART in 50 mM TBS pH 7.4, labelling 0-9000 s at 20 °C
[6] = target: T5, human PARP15 ART domain (Asn481-Ala678), wild type (human) (UniProt Q460N3)
T5 sequence: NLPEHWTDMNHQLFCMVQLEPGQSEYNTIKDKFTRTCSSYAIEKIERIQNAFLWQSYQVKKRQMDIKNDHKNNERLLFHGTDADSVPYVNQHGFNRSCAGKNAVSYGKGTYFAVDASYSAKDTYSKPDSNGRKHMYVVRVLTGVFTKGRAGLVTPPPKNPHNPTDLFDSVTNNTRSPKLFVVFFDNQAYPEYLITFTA

[7] = target: the molecule itself; assay: AUC; sedimentation velocity, 0.5 µM PARP15 ART, 58,000 rpm, measured at 220 nm; Discrete Model Genetic Algorithm fit, 100 Monte Carlo iterations; no NAD+ treatment; dimer to monomers
[8] = target: the molecule itself; assay: AUC; sedimentation velocity at 0.5 µM ART domain, 58,000 rpm for 5 h, measured at 220 nm, no NAD+; discrete model genetic algorithm (DMGA) analysis; dimer to monomers
[9] = target: the molecule itself; assay: SEC-MALS; SEC-RALS/LALS (OMNISEC), Superdex 200 Increase 10/300 GL; 120 µl at 0.75 mg/ml PARP15 constructs, 0.35 mg/ml PARP14 ART, 0.65 mg/ml PARP10 ART; 50 mM HEPES pH 7.5, 300 mM NaCl, 1 mM TCEP
[10] = target: the molecule itself; assay: AUC; sedimentation velocity at 9 µM protein, auto-MARylated and unmodified ART; 20 mM sodium phosphate pH 7, 150 mM NaCl; van Holde-Weischet analysis

NC(=O)c1cccc(N)c1 [3-aminobenzamide]
nanoDSF thermal shift at 1 mM ligand (PARP15 [1]): thermal stabilities and ligand-induced Tm-shifts indicated they were properly folded | X-ray crystal structure; also nanoDSF thermal shift (PARP15 [2]): we crystallized the monomeric R576E mutant in complex with the nicotinamide analog 3-aminobenzamide (3AB)

NC(=O)c1ccc[n+]([C@@H]2O[C@H](COP(=O)([O-])OP(=O)(O)OC[C@H]3O[C@@H](n4cnc5c(N)ncnc54)[C@H](O)[C@@H]3O)[C@@H](O)[C@H]2O)c1 [NAD+]
auto-MARylation assay with purified enzyme (MacroGreen overlay) (PARP10): PARP10 ART domain auto-modification increased in a roughly linear fashion over the entire concentration range

Nc1ncnc2c1ncn2[C@@H]1O[C@H](C(=O)N2CCN(CC(=O)Nc3cccc4c3CNC4=O)CC2)[C@@H](O)[C@H]1O [EB-47]
Kd (PARP15 [3]): 47 µM | Kd (PARP15 [4]): 24 µM

B1: PARP15 macrodomain-2 + ART domain construct (m2-ART; Gly287-Ala678) (domain or fragment, human, UniProt Q460N3 287-678, looked up)
chain: GTVSKPCFTAYEMKIGAITFQVATGDIATEQVDVIVNSTARTFNRKSGVSRAILEGAGQAVESECAVLAAQPHRDFIITPGGCLKCKIIIHVPGGKDVRKTVTSVLEECEQRKYTSVSLPAIGTGNAGKNPITVADNIIDAIVDFSSQHSTPSLKTVKVVIFQPELLNIFYDSMKKRDLSASLNFQSTFSMTTCNLPEHWTDMNHQLFCMVQLEPGQSEYNTIKDKFTRTCSSYAIEKIERIQNAFLWQSYQVKKRQMDIKNDHKNNERLLFHGTDADSVPYVNQHGFNRSCAGKNAVSYGKGTYFAVDASYSAKDTYSKPDSNGRKHMYVVRVLTGVFTKGRAGLVTPPPKNPHNPTDLFDSVTNNTRSPKLFVVFFDNQAYPEYLITFTA
notes: PARP15, human, macrodomain-2 and ART domain, residues Gly287-Ala678 of the canonical isoform (isoform 1); synthetic gene, codon optimised for E. coli, in pET151/TOPO; also called PARP15 m2-ART; PARP15 isoform-2 (m2-ART); source: E. coli BL21(DE3), purified (HiTrap TALON, Superdex 200 SEC, HiTrap SP XL cation exchange)
binding result [5]: binds

B2: PARP15 ART domain (Asn481-Ala678) H559Y, catalytically inactive (domain or fragment)
chain: NLPEHWTDMNHQLFCMVQLEPGQSEYNTIKDKFTRTCSSYAIEKIERIQNAFLWQSYQVKKRQMDIKNDHKNNERLLFYGTDADSVPYVNQHGFNRSCAGKNAVSYGKGTYFAVDASYSAKDTYSKPDSNGRKHMYVVRVLTGVFTKGRAGLVTPPPKNPHNPTDLFDSVTNNTRSPKLFVVFFDNQAYPEYLITFTA
MARylation of plate-bound PARP15 macrodomain-2 by 250 nM wild-type ART with increasing H559Y (2-fold dilution series from 2 µM), MacroGreen overlay [6]: 500 nM

B3: human PARP15 ART domain (Asn481-Ala678), wild type (domain or fragment, UniProt Q460N3 481-678, looked up)
chain: NLPEHWTDMNHQLFCMVQLEPGQSEYNTIKDKFTRTCSSYAIEKIERIQNAFLWQSYQVKKRQMDIKNDHKNNERLLFHGTDADSVPYVNQHGFNRSCAGKNAVSYGKGTYFAVDASYSAKDTYSKPDSNGRKHMYVVRVLTGVFTKGRAGLVTPPPKNPHNPTDLFDSVTNNTRSPKLFVVFFDNQAYPEYLITFTA
notes: PARP15 (protein mono-ADP-ribosyltransferase PARP15), human, ART domain, residues Asn481-Ala678 of the canonical isoform (isoform 1); No tag cleavage is described; not copied; also called PARP15 ART WT; WT PARP15; source: E. coli BL21(DE3), purified (TALON IMAC, Superdex 75 SEC)
Kd [7]: 0.313 µM

B4: human PARP15 ART domain (Asn481-Ala678), wild type (domain or fragment, UniProt Q460N3 481-678, looked up)
chain: NLPEHWTDMNHQLFCMVQLEPGQSEYNTIKDKFTRTCSSYAIEKIERIQNAFLWQSYQVKKRQMDIKNDHKNNERLLFHGTDADSVPYVNQHGFNRSCAGKNAVSYGKGTYFAVDASYSAKDTYSKPDSNGRKHMYVVRVLTGVFTKGRAGLVTPPPKNPHNPTDLFDSVTNNTRSPKLFVVFFDNQAYPEYLITFTA
notes: PARP15, human, ADP-ribosyltransferase (ART) domain, residues Asn481-Ala678; numbers count on the canonical isoform (isoform 1); cDNA in pNIC-Bsa4 (GenBank EF198106 is the vector); also called PARP15 ART WT; WT PARP15; source: E. coli BL21(DE3), purified (HiTrap TALON, Superdex 75 SEC)
Kd [8]: 0.313 µM | stoichiometry N [9]: 2

B5: auto-MARylated PARP15 ART domain (Asn481-Ala678) (domain or fragment, human, UniProt Q460N3 481-678, looked up)
chain: NLPEHWTDMNHQLFCMVQLEPGQSEYNTIKDKFTRTCSSYAIEKIERIQNAFLWQSYQVKKRQMDIKNDHKNNERLLFHGTDADSVPYVNQHGFNRSCAGKNAVSYGKGTYFAVDASYSAKDTYSKPDSNGRKHMYVVRVLTGVFTKGRAGLVTPPPKNPHNPTDLFDSVTNNTRSPKLFVVFFDNQAYPEYLITFTA
modifications: mono-ADP-ribosylated by auto-modification with NAD+; sites not stated
notes: PARP15, human, ART domain, residues Asn481-Ala678 of the canonical isoform; same construct as m1 after auto-MARylation; source: E. coli BL21(DE3), purified; 40 µM incubated with 100 µM NAD+ for 1 h, NAD+ removed on a desalting column
binding result [10]: binds
